Measurements taken from patent publication US20130230533A1 (Regeneron, published 2013).

T1: Monomeric human CD48-mmH (human)
T1 chain: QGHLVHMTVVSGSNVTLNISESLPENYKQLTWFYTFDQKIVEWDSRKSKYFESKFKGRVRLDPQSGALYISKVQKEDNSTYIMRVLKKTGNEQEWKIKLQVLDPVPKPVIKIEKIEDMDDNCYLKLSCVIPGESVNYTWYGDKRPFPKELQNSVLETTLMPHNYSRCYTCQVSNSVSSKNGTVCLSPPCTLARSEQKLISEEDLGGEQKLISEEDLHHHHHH

T2: Dimeric human CD48-mFc (human)
T2 construct: the whole entry is the construct; also called hCD48-mFc
T2 chain: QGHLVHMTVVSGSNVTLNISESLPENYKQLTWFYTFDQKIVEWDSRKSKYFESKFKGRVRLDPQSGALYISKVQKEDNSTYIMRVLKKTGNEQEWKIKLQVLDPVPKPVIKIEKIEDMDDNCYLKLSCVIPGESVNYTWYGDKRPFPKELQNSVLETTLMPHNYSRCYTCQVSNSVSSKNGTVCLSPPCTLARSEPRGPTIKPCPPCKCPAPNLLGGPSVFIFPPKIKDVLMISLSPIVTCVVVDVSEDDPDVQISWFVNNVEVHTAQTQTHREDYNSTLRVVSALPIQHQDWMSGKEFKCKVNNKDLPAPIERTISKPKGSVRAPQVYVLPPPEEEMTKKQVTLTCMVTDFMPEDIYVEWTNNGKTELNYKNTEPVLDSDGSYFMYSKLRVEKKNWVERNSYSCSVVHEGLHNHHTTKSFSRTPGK

T3: Monomeric monkey CD48-mmH (monkey)
T3 construct: Soluble monkey CD48 with a myc-myc-hexa-histidine C-terminal tag; the whole entry is the construct; also called mfCD48-mmH
T3 chain: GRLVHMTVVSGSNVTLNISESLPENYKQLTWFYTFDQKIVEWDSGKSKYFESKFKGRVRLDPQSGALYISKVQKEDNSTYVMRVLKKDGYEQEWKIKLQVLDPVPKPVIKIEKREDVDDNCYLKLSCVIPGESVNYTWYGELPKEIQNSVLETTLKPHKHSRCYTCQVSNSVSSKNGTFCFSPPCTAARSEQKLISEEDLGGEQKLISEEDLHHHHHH

T4: Dimeric monkey CD48-mFc (monkey)
T4 construct: Soluble monkey CD48 with a C-terminal Fc fusion [mFc]; the whole entry is the construct
T4 chain: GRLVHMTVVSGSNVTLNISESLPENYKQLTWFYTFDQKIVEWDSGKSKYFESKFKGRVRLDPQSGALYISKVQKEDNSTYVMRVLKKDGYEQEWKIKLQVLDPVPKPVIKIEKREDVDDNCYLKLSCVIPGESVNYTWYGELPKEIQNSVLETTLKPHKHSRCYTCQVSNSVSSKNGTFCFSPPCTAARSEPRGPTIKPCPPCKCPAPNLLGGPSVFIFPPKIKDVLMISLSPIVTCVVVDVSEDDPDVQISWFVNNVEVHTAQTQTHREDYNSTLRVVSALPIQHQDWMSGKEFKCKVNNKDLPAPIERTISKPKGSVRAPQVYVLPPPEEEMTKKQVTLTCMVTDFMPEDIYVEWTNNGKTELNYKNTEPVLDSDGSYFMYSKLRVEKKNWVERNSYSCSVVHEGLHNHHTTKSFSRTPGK


Key:
Monomeric human CD48-mmH = target: T1, Monomeric human CD48-mmH; assay: SPR (Biacore), antibody captured by anti-Fc, CD48 in solution, 37 C
Description: (§1) Measurements were conducted on a T100-2 BIACORE™ instrument (Biacore Life Sciences division of GE Healthcare, Piscataway, N.J.). Antibodies (either with mouse Fc [designated “H2M” or “H3M”] or human IgG4 Fc [designated “H4H”]) were captured through an anti-Fc chip surface, and CD48 was flowed over the surface either in a monomeric (soluble CD48 expressed with a myc-myc-hexa-histidine C-terminal tag [mmH]) or dimeric (soluble CD48 expressed with a C-terminal Fc fusion [mFc]) format.
(§2) The soluble CD48 was applied to the flow cell in separate injections at different concentrations, and kinetic association (kₐ) and dissociation (kd) rate constants were determined by fits to the kinetic binding data using Biacore software. Binding dissociation equilibrium constants and dissociation half-times were calculated from the kinetic rate constants as: KD=kd/kₐ; t_{1/2}=(ln 2/kd) (units: ka=M⁻¹*s⁻¹; kd=s⁻¹; KD=M; T½=min) (Tables 3-6).

Dimeric human CD48-mFc = target: T2, Dimeric human CD48-mFc; assay: as above
Description: as §1, §2

[1] = target: T3, Monomeric monkey CD48-mmH; assay: as above
Description: as §1, §2

Dimeric monkey CD48-mFc [2] = target: T4, Dimeric monkey CD48-mFc; assay: as above
Description: as §1, §2

[3] = target: T3, Monomeric monkey CD48-mmH; assay: SPR (Biacore), antibody captured by anti-Fc, CD48 in solution, 25 C
Description: as §1, §2

Dimeric monkey CD48-mFc [4] = target: T4, Dimeric monkey CD48-mFc; assay: as above
Description: as §1, §2

| Binder | Kd (Monomeric human CD48-mmH) [pM] | T½ (Monomeric human CD48-mmH) [min] | koff (Monomeric human CD48-mmH) [s⁻¹] | kon (Monomeric human CD48-mmH) [M⁻¹ s⁻¹] | Kd (Dimeric human CD48-mFc) [pM] | T½ (Dimeric human CD48-mFc) [min] | koff (Dimeric human CD48-mFc) [s⁻¹] | kon (Dimeric human CD48-mFc) [M⁻¹ s⁻¹] | Kd [1] [pM] | T½ [1] [min] | koff [1] [s⁻¹] | kon [1] [M⁻¹ s⁻¹] | Kd (Dimeric monkey CD48-mFc [2]) [pM] | T½ (Dimeric monkey CD48-mFc [2]) [min] | koff (Dimeric monkey CD48-mFc [2]) [s⁻¹] | kon (Dimeric monkey CD48-mFc [2]) [M⁻¹ s⁻¹] | Kd [3] [pM] | T½ [3] [min] | koff [3] [s⁻¹] | kon [3] [M⁻¹ s⁻¹] | also measured |
| --- | --- | --- | --- | --- | --- | --- | --- | --- | --- | --- | --- | --- | --- | --- | --- | --- | --- | --- | --- | --- | --- |
| H4H1764N (antibody, V domains shown, Human IgG4 Fc (H4H)) VH: QVQLVESGGGVVQPGRSLRLSCAASGFTFSDYGMHWVRQAPGKGLEWVAVIWNDGSNKNYADSVKGRFSISSDSSKNTLYLHMNSLRAEDTAVYYCARSLYSTSPWYFDLWGRGTLVTVSS VL: not shown | 109000 | 1 | 0.0114 | 105000 | 330 | 116 | 9.94e-05 | 301000 | 2910 | 19 | 0.00062 | 213000 | 7400 | 8 | 0.00142 | 192000 | 2340 | 56 | 0.000206 | 87700 | Kd (Dimeric monkey CD48-mFc [4]): 525 pM; T½ (Dimeric monkey CD48-mFc [4]): 88 min; koff (Dimeric monkey CD48-mFc [4]): 0.000132 s⁻¹; kon (Dimeric monkey CD48-mFc [4]): 251000 M⁻¹ s⁻¹ |
| H3M1766N (antibody, V domains shown, Human variable domains, mouse Fc (H3M); also called H2M1766N) VH: EVQLVESGGGLAQPGGSLRLSCAASGFTFSSYEMNWVRQAPGKGLEWVSYITTSGSTIYYADSVKGRFTMSRDNAKKSLYLEMNSLRAEDTAVYYCAREECTNGVCYKDYQYYGMDVWGQGTTVTVSS VL: DIQMTQSPSSVSASVGDRVTITCRASQNINTWLAWYQQKPGKVPKLLIYAASSLQSGVPSRFSGSGSGTDFTLTISSLQPEDFATYYCQQANSFPLTFGGGTKVEIK | 3840 | 19 | 0.00062 | 161000 | 342 | 36 | 0.000324 | 949000 |  |  |  |  |  |  |  |  |  |  |  |  |  |

These reach a lower Kd (Monomeric human CD48-mmH). Values come first.

| Kd (Monomeric human CD48-mmH) [pM] | T½ (Monomeric human CD48-mmH) [min] | koff (Monomeric human CD48-mmH) [s⁻¹] | kon (Monomeric human CD48-mmH) [M⁻¹ s⁻¹] | Kd (Dimeric human CD48-mFc) [pM] | T½ (Dimeric human CD48-mFc) [min] | koff (Dimeric human CD48-mFc) [s⁻¹] | kon (Dimeric human CD48-mFc) [M⁻¹ s⁻¹] | Kd [1] [pM] | T½ [1] [min] | koff [1] [s⁻¹] | kon [1] [M⁻¹ s⁻¹] | Kd (Dimeric monkey CD48-mFc [2]) [pM] | T½ (Dimeric monkey CD48-mFc [2]) [min] | koff (Dimeric monkey CD48-mFc [2]) [s⁻¹] | kon (Dimeric monkey CD48-mFc [2]) [M⁻¹ s⁻¹] | Kd [3] [pM] | T½ [3] [min] | koff [3] [s⁻¹] | kon [3] [M⁻¹ s⁻¹] | Binder | also measured |
| --- | --- | --- | --- | --- | --- | --- | --- | --- | --- | --- | --- | --- | --- | --- | --- | --- | --- | --- | --- | --- | --- |
| 2230 | 18 | 0.000636 | 286000 | 36 | 255 | 4.53e-05 | 1.26e+06 | 1190 | 30 | 0.000382 | 320000 | 300 | 22 | 0.000516 | 1.72e+06 | 843 | 44 | 0.000265 | 315000 | H4H1713N (antibody, V domains shown, Human IgG4 Fc (H4H)) VH: QVQLVQSGAEVKKPGASVKVSCKASGHTFTNYYIHWVRQAPGQGLEWMGITNPNDGNTRYAQKFQGRISMTWDTSTSTVFMELSSLKSEDTAVYYCAGLRYWFFDLWGRGTPVTVSS VL: DIQMTQSPSSVSASVGDRVTITCRASQDISSWLAWYQQKPGKAPNLLIFAASSLQSGVPSRFSGSGSGTDFTLTISSLQPEDFGTYYCQQTDNFPRTFGQGTKVEIN | Kd (Dimeric monkey CD48-mFc [4]): 281 pM; T½ (Dimeric monkey CD48-mFc [4]): 48 min; koff (Dimeric monkey CD48-mFc [4]): 0.000242 s⁻¹; kon (Dimeric monkey CD48-mFc [4]): 861000 M⁻¹ s⁻¹ |
| 662 | 22 | 0.000533 | 804000 | 13.8 | 375 | 3.08e-05 | 2.23e+06 | 440 | 66 | 0.000174 | 396000 | 91.1 | 83 | 0.000139 | 1.53e+06 | 298 | 54 | 0.000215 | 720000 | H4H1770P (antibody, human IgG4, V domains shown, Human IgG4 Fc (H4H)) VH: QVQLVQSGAEVKKPGAAVKVSCKASGYTFTAYGISWVRQAPGQGLEWMGWISAYDGDTNNAQKFQGRVTMTTDTSSSTAYMELRSLGSDDTAVYYCARDRYSSSSGYFDYWGQGTLVTVSS VL: DIQMTQSPSSVSASVGDRVTITCRASQDISSWLAWSQQKPGKAPKALIYAASSLQSGVPSRFSGSGSGTDFTLTISSLQPEDFATYYCQQANSFPYTFGQGTKLEIK | Kd (Dimeric monkey CD48-mFc [4]): 131 pM; T½ (Dimeric monkey CD48-mFc [4]): 103 min; koff (Dimeric monkey CD48-mFc [4]): 0.000113 s⁻¹; kon (Dimeric monkey CD48-mFc [4]): 858000 M⁻¹ s⁻¹ |
